The nanobody polyreactivity screen of Harvey et al. (2022)

Test: yeast display, Sf9 membrane polyspecificity reagent, FACS + sequencing; frameworks hold sequencing errors
Method in brief: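 Synthetic nanobody libraries on Saccharomyces cerevisiae BJ5465 were galactose-induced for 36–48 hours, stained 1 hour at 4 °C with 10% biotinylated, detergent-solubilized Sf9 membrane reagent and enriched on streptavidin microbeads. FACS then separated cells into low and high (top ~1%) gates by anti-HA (expression) and streptavidin (reagent binding) fluorescence. Genes were colony-PCR amplified, MiSeq 2 × 250 sequenced and CDR-length filtered. A clone's polyreactivity label is that of its gate of origin.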

Sequence | polyreactivity (PSR sort gate)
QVQLVESVGGLVQAGGSLRLSCAASGFTFDYYSMGWYRQATGKERELVAAITTAGSTNYADSVKGRFTISRDNAKNTVSLQINSLKPEDTAVYYCAAYWWPWDISWDDYWGQGTQVNVSS | high polyreactivity
QVQLVESVGGLVQAGGSLRLSCAASGFTFGRYAMGWYRQAPGKESELVATITRTGSTNYADSVKGRFTISRDNAKNTVYLQMNSLKPEDTAVYYCAKDWAYRRHWVGFYYWGLGTQVTVSS | low polyreactivity
QVQLVESVGGLVQAGGSLRLSCAASGFTFVGNTMGWYRQAPGKERELVAAIRGRDGRTYYADSVKGRFTISRDNAKNTVYLQMNSLKPEDTAVYYCNVDVKYSVRSEFDFWGQGTQVTVSS | low polyreactivity
QVQLVESVGGLVQAGGSLRLSCAASGFTFYKYAMGWYRQAPGKEREFVAAIRTRSDSTYYADSVKGRFTISRDNAKNTVYLQMNSLKPEDTAVYYCAAQGYVEVGYSRYYYWGQGTQVTVSS | high polyreactivity
QVQLVESVGGLVQAGGSLRLSCAASGIIFVGYAMGWYRPAPGKERELVSAIDLSGDSTYYADSVKGRFTISRDNAKNTVYLQMNSLKPEDTAVYYCAAGYWHRVNGDYDYWGQGTQVTVSS | high polyreactivity
QVQLVESVGGLVQAGGSLRLSCAASGITFGRNTMGWYRQAPGKERELVAAISWNGDSTYYADSVKGRFTISRDNAKNTVYLQMNSLKPEDTAVYYCNADDVFLYQTDGLGDYWGQGTQVTVSS | low polyreactivity
QVQLVESVGGLVQAGGSLRLSCAASGITFNEYAMGWYRQATGKARELVAAISRRGGSTYYADSVKGRFTISRDNAKNTVYLQMYSLKPEDTAVYYCAADPGTPRYQFLWYGYWGQGTQVTVSS | low polyreactivity
QVQLVESVGGLVQAGGSLRLSCAASGITFRRYAMGWYRQAPGKERELVATIRNSGGGTYYADSVKGRFTISRDNAKNTVYLQMNSLKPEDTAVYYCAAELYFTYYYWGQGTQVTVSS | high polyreactivity
QVQLVESVGGLVQAGGSLRLSCAASGLTFRKYAMGWYRQAPGKERELVAGISSGGSTYYADSVKGRFTISRDNAKNTVYLQMNSLKPEDTAVYYCAAKALRTMYYWGQGTQVTVSS | high polyreactivity
QVQLVESVGGLVQAGGSLRLSCAASGRIFGSNAMGWYRPAPGKERELVAAISLSGTSTYYADSVKGRFTISRDNAKNTVYLQMNSLKPEDTAVYYCAAGLPGGTYFWGQGTQVTVSS | high polyreactivity
QVQLVESVGGLVQAGGSLRLSCAASGRIFGYNDMGWYRQEPGKERELVAVISTSGTITYYADSVKGRFTISRDNAKNTVYLQMNSLKPEDTAVYNCAAGSYSRYLYSLYFDFDYWGQGTQVTVSS | low polyreactivity
QVQLVESVGGLVQAGGSLRLSCAASGRIFPYYAMGWYIQAPGKERELVATITWRGGITYYADSVKGRFTISRDNAKNTVYLQMNSLKPEDTSVYYCAVRKVYRSSFDYWGQGTQVTVSS | high polyreactivity
QVQLVESVGGLVQAGGSLRLSCAASGRIFRWNAMGWYRQAPGKEREFVAAISWSGGSTYYADSVKGRFTISRDNAKNTFYLQMNSLKPEDTAVYYCNKVGYYCVGTSQEFDYWGQGTQVTVSS | high polyreactivity
QVQLVESVGGLVQAGGSLRLSCAASGRIFRYYAMGWSRQAPGKERELVAGISRGTSTYYADSVKGRFTISRDNAKNTVYLQMNSLKPEDTAVYYCAKGSIQYFRPYTFYTWGQGTQVTVSS | high polyreactivity
QVQLVESVGGLVQAGGSLRLSCAASGRTFAYTAMGWYRQARGKDREWLAAITWSGDSTYYADSVKGRFTISRDNAKNTVSLQKNSLKPEDTAVYYCAADYFGGPSYEFVYWGQGTQVTGSS | low polyreactivity
QVQLVESVGGLVQAGGSLRLSCAASGRTFFYNAMGWYRQAPAKERELVAAIDWSGDSTYYADSVKGRFTISRDNAKNTVYLQMNSLKPEDTAVYYCAARRKNRRDYDYYYWGQGTQVTVSS | high polyreactivity
QVQLVESVGGLVQAGGSLRLSCAASGRTFRWNAMGWYRQAPGKERELVAAISYSGGSTYYADSVKGRFTISRDNAKNTVYLQMNSLKPEDTAVYYCAKAYSWYPIFRGLDSWGQGTQVTVSS | high polyreactivity
QVQLVESVGGLVQAGGSLRLSCAASGRTFRYNAMGWYRQAPGKERELVASITSGGSTNYADSVKGRFTISRDNAKNTVYLQMNSLKPEDTAVYYCAAEAYFWQYERDYWGQGTQVTLSS | low polyreactivity
QVQLVESVGGLVQAGGSLRLSCAASGRTFSTKAMGWYRQAPGKERELVAVIPSSGVRTYYADSVKGRFTISRDNAKNTVYLQKNSLKPEDTAVYYCAKPYGYRLDYWGQGTQVTVSS | high polyreactivity
QVQLVESVGGLVQAGGSLRLSCAASGRTFWWNAMGWYRQAPGKEREFVAAIRSTGGRTYYADSVKGRFTISRDNAKNTVYLQMNSLKPEDTAVYYCAAYTLDPYGFLYEYWGQGTQVTVSS | high polyreactivity
QVQLVESVGGLVQAGGSLRLSCAASGRTIHFNTMGWYRQAPGKERELVAAIRWGGNTYYADSVKGRFTISRDNAKNTVYLQMNSLKPEDTAVYYCAADRWYYFLMYYWGQGTQVTVSS | low polyreactivity
QVQLVESVGGLVQAGGSLRLSCAASGRTLPWYAMGWYRQAPGKERELVAVIRWIGGRTYYADSVKGRFTISRDNAKNTVYLQMNSLKPEDTAVYYCAARPHYYYGWYYYWGQGTQVTVSS | high polyreactivity
QVQLVESVGGLVQAGGSLRLSCAASGSIFKSYAMGWYRQAPGKERELVAAITYRGGSTYYADSVKGRFTISRDNAKNTVYLQMNSLKPEDTAVYYCAKDQHRYYQVWGDYWGQGTQVTVSS | high polyreactivity
QVQLVESVGGLVQAGGSLRLSCAASGSIFRNYAMGWYRQAPGKERELVAAITYRGGTTYYADSVKGRFTISRDNAKNTVYLQMNSLKPEDTAVYYCNTASVSRLYGEYDYWGQGTQVTVSS | high polyreactivity
QVQLVESVGGLVQAGGSLRLSCAASGSIFSYYAMGWYRQAPGKERELVAAITSSGDSTYYADSVKGRFTISRDNAKNTVYLQINSLKPEDTAVYYCAAGILDLKLYFSSYDYWGQGTQVTVSS | low polyreactivity
QVQLVESVGGLVQAGGSLRLSCAASGSIFVPYAMGWYRQAPGKEREFVAAIYSGGGNTYYADSVKGRFTISRDNAKNTVYLQMNSLIPEDTAVYYCAAAYFYSSWSRYDYWGQGTQVTVSS | high polyreactivity
QVQLVESVGGLVQAGGSLRLSCAASGSILRRYAMGWYRRAPWKERELVAAIDGGGGTTYYADSVKGRFTISRDYAKKTVYLQMNSLKPEDNAVYYCAADASWELIAWAHYDYWGQGTQVSVSS | low polyreactivity
QVQLVESVGGLVQAGGSLRLSCAASGSIRYYAMGWYRQAPGKERELVAAISSRGTNTYYADSVKGRFTISRDNAKNTVYLQMNSLKPEDTAVYYCNAVVGLGYNYWGQGTQVTVSS | high polyreactivity
QVQLVESVGGLVQAGGSLRLSCAASGSTCQRYAIGWYRQAPGKERELVAAISDGGSTNYADSVKGRFTISRDNAKNTVYLQMNSLKPEDTAVSYCAAKYLSRYDYWGQGTQVTVSS | low polyreactivity
QVQLVESVGGLVQAGGSLRLSCAASGSTFDDNAMGWYRQAPGKERELVASITYRGGSTYYADSVKGRFTISRDNAKNTVYLQMNSLKPEDTAVYYCAKGHYFKYDYWGQGTQVTVSS | low polyreactivity
